Literature values as cited in PMC10530560 (Cell chemical biology, 2023).
Each block holds one molecule with its values, some of them ahead of it.

Experiments:
CXCL12 [1] = tested on: CXCL12
CCL5 [2] = tested on: CCL5
CXCL12 [3] = conditions: CXCL12, chemotaxis assays using murine T-cells from WT and PSGL-1 null mice
CCL5 [4] = conditions: CCL5, immobilized rPSGL-1 with SLe^x modification
VISTA = conditions: pH-dependent; dependent on tyrosine sulfation, not on SLe^x on Thr57

heparan sulfate binding (CXCL8): did not bind
heparan sulfate binding (CXCL12 [1]): found to bind
heparan sulfate binding (CCL5 [2]): found to bind
heparan sulfate binding (CCL3): did not bind
Molecule: heparan sulfate

binding to PSGL-1 (CXCL12 [3]): did not bind
binding to PSGL-1 (CCL21): reported to bind PSGL-1
binding to PSGL-1 (CCL5 [4]): did not bind
binding to PSGL-1 (CCL19): reported to bind PSGL-1
binding of VISTA (VISTA): novel pH-dependent ligand
binding to PSGL-1 (CCL27): reported to bind PSGL-1
B1: PSGL-1: P-selectin glycoprotein ligand-1 as tested in previous literature studies (protein, UniProt Q14242 42-412, looked up)
P-selectin glycoprotein …: QATEYEYLDYDFLPETEPPEMLRNSTDTTPLTGPGTPESTTVEPAARRSTGLDAGGAVTELTTELANMGNLSTDSAAMEIQTTQPAATEAQTTQPVPTEAQTTPLAATEAQTTRLTATEAQTTPLAATEAQTTPPAATEAQTTQPTGLEAQTTAPAAMEAQTTAPAAMEAQTTPPAAMEAQTTQTTAMEAQTTAPEATEAQTTQPTATEAQTTPLAAMEALSTEPSATEALSMEPTTKRGLFIPFSVSSVTHKGIPMAASNLSVNYPVGAPDHISVKQCLLAILILALVATIFFVCTVVLAVRLSRKGHMYPVRNYSPTEMVCISSLLPDGGEGPSATANGGLSKAKSPGLTPEPREDREGDDLTLHSFLP
